{
  "source": "patent US20030108912",
  "about": "“Liver enriched transcription factor” (published 2003)",
  "molecular_target": "T1, HNF-4 Hph I truncation (Rattus norvegicus, UniProt P22449 SEQ:1-219)",
  "T1 chain": "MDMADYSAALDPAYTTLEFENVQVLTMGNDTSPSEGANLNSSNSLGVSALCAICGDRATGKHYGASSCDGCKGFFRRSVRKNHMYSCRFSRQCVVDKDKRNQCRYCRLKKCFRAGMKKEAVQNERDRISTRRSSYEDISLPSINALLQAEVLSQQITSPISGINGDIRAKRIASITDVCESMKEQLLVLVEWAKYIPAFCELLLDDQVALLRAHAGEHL",
  "assay": "EMSA; zinc fingers present, dimerization region absent",
  "details": "label: 32P; four-base 5' overhangs",
  "data": [
    {"binder": "APF1 (dsDNA) DNA 1: TCGAGCGCTGGGCAAAGGTCACCTGC DNA 2: GCAGGTGACCTTTGCCCAGCGCTCGA", "values": [
      {"measurement": "binding result", "value": "no binding"}
    ]}
  ]
}
